In patent US20150232572A1 (UNIVERSIT DE LI GE, published 2015):

How the values were obtained:
[1] = target: T1, recombinant MT1-MMP (MMP14) catalytic domain (UniProt P50281 112-284, limits assumed); assay: ELISA
T1 construct: domain: catalytic domain

[2] = target: T2, recombinant MT3-MMP (MMP16) catalytic domain (UniProt P51512 120-292, limits assumed); assay: ELISA
T2 construct: domain: catalytic domain

[3] = target: T3, recombinant MMP2 catalytic domain (UniProt P08253 110-452, limits assumed); assay: Western blot
T3 construct: domain: catalytic domain
T3 sequence (P08253 110-452 limits assumed): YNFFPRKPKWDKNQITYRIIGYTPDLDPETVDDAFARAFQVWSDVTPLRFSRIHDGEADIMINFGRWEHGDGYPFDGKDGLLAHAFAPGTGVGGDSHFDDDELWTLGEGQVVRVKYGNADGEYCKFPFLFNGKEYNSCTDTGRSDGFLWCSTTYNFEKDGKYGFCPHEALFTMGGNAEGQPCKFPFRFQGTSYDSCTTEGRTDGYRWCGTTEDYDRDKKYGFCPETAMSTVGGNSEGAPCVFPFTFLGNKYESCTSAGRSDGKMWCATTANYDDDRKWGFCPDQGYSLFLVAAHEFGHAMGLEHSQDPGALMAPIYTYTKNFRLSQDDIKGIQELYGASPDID

T2 sequence (P51512 120-292 limits assumed): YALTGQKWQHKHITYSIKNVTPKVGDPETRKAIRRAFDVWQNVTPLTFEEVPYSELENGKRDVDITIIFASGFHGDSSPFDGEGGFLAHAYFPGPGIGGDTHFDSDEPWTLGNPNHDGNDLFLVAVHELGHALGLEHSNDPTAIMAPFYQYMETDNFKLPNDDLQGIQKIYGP

B1: K4H7 scFv antibody (scFv)
scFv: QVQLVQSGGGLVKPGRSLRLSCTASGFTFGDYAMSWFRQAPGKGLEWVGFIRSKAYGGTTEYAASVKGRFTISRDDSKSIAYLQMNSLKTEDTAVYYCTRGSSGWFLNWFDPWGQGTLVTVSSLEGGGGSGGGGSGGGGSELETTLTQSPATLSLSPGERATLSCRASQSISSSYLAWYQHKPGQAPRLLIYGASRRATGIPDRFSGSGSGTDFSLTISRLEPEDFAVYYCLHYGSSKWTFGQGTKVEIKR
notes: Human scFv from the VTT naive phage display libraries; Purified scFv clones contain a myc tag (produced as soluble scFv-myc-his fusions); also called K4H7 clone; scFV clone K4H7
[1]
  binding result: no binding (tested: 3 µg of recombinant protein)
[2]
  binding result: no binding (tested: 3 µg of recombinant protein)
[3]
  binding result: no binding (tested: scFv 1 µg/ml)
